{"source": "IntAct's records for PubMed 31515488", "parents": {"B1": {"name": "Low-density lipoprotein receptor class A domain-containing protein 1 (Homo sapiens), Q5T700 (parent)", "chain": "MNKVFPQGENGYTAAESKAHPGGEAGGGHLCCSRRGACLSASLLLLLATVAALIALVTILGLPSCTPGAQACITLTNRTGFLCHDQRSCIPASGVCDGVRTCTHGEDEDESLCRDVPQSLPHFLVAHCGDPASWIYSDQKCDGTNNCGDCSDELSPVTVCPPCGPGWWRCPSTFFKYCDCIPRHLCRDHVQHCSDWSDEYACPGP", "partner": "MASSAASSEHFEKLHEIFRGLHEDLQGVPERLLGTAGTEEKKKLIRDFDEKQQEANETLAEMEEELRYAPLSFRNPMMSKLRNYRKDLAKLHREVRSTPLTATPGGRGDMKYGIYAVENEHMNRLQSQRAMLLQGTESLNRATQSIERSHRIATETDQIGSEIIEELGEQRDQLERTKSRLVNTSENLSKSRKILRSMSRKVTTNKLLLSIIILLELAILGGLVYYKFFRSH"}, "B2": {"name": "Keratin-associated protein 3-2 (Homo sapiens), Q9BYR7 (parent)", "chain": "MDCCASRSCSVPTGPATTICSSDKSCRCGVCLPSTCPHTVWLLEPICCDNCPPPCHIPQPCVPTCFLLNSCQPTPGLETLNLTTFTQPCCEPCLPRGC", "partner": "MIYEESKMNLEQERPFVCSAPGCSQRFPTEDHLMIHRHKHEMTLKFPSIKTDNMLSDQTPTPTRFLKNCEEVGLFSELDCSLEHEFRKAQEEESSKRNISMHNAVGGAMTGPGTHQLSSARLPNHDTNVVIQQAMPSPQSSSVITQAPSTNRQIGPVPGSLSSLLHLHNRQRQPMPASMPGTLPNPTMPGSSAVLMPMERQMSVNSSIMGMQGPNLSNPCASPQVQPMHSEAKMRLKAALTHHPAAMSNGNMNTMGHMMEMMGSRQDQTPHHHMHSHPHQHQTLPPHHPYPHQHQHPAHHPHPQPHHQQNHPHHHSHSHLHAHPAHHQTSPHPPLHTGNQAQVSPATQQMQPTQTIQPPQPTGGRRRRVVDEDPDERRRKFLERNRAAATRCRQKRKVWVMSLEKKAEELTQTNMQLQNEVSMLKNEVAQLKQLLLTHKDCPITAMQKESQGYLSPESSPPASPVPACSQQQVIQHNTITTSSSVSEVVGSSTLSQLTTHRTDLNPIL"}, "B3": {"name": "F-BAR domain only protein 1 (Homo sapiens), O14526 (parent)", "chain": "MSYFGEHFWGEKNHGFEVLYHSVKQGPISTKELADFIRERATIEETYSKAMAKLSKLASNGTPMGTFAPLWEVFRVSSDKLALCHLELTRKLQDLIKDVLRYGEEQLKTHKKCKEEVVSTLDAVQVLSGVSQLLPKSRENYLNRCMDQERLRRESTSQKEMDKAETKTKKAAESLRRSVEKYNSARADFEQKMLDSALRFQAMEETHLRHMKALLGSYAHSVEDTHVQIGQVHEEFKQNIENVSVEMLLRKFAESKGTGREKPGPLDFEAYSAAALQEAMKRLRGAKAFRLPGLSRREREPEPPAAVDFLEPDSGTCPEVDEEGFTVRPDVTQNSTAEPSRFSSSDSDFDDEEPRKFYVHIKPAPARAPACSPEAAAAQLRATAGSLILPPGPGGTMKRHSSRDAAGKPQRPRSAPRTSSCAERLQSEEQVSKNLFGPPLESAFDHEDFTGSSSLGFTSSPSPFSSSSPENVEDSGLDSPSHAAPGPSPDSWVPRPGTPQSPPSCRAPPPEARGIRAPPLPDSPQPLASSPGPWGLEALAGGDLMPAPADPTAREGLAAPPRRLRSRKVSCPLTRSNGDLSRSLSPSPLGSSAASTALERPSFLSQTGHGVSRGPSPVVLGSQDALPIATAFTEYVHAYFRGHSPSCLARVTGELTMTFPAGIVRVFSGTPPPPVLSFRLVHTTAIEHFQPNADLLFSDPSQSDPETKDFWLNMAALTEALQRQAEQNPTASYYNVVLLRYQFSRPGPQSVPLQLSAHWQCGATLTQVSVEYGYRPGATAVPTPLTNVQILLPVGEPVTNVRLQPAATWNLEEKRLTWRLPDVSEAGGSGRLSASWEPLSGPSTPSPVAAQFTSEGTTLSGVDLELVGSGYRMSLVKRRFATGMYLVSC"}, "B4": {"name": "Protein DBF4 homolog B (Homo sapiens), Q8NFT6 (parent)", "chain": "MSEPGKGDDCLELESSMAESRLRAPDLGVSRCLGKCQKNSPGARKHPFSGKSFYLDLPAGKNLQFLTGAIQQLGGVIEGFLSKEVSYIVSSRREVKAESSGKSHRGCPSPSPSEVRVETSAMVDPKGSHPRPSRKPVDSVPLSRGKELLQKAIRNQGSISGGGSGGSSSLLTNARSWGVRILHVDEMMMHVQQLSLASLCVKKQQPKKPEGTCPAAESRTRKVARLKAPFLKIEDESRKFRPFHHQFKSFPEISFLGPKDASPFEAPTTLGSMHHTRESKDGEPSPRSAAHTMPRRKKGYCECCQEAFEELHVHLQSAQHRSFALEAHLYAEVDRIIAQLSHSFADIPFQAGLPRWSGSPASDCDPLCPETLHPHQPSHPRAASPRIRKEDSCQASVTQGRAAGQQRWTESLDGVMGPPASHTCVSATTLLPALPKGSREQGCLCPCPASFTQSHLVTSLALLPGEWSPAEDMPLHPSQENSFAPADIPVKGPLLFPEARPWLMSARCWVRPFPFVTWGCLIPHDTTPLHEEVSPCPCLRLGYLYLLLTQSLWCRVRVPSLSTAGPIPRTSHPCTLAFPSYLNDHDLGHLCQAKPQGWNTPQPFLHCGFLAVDSG", "partner": "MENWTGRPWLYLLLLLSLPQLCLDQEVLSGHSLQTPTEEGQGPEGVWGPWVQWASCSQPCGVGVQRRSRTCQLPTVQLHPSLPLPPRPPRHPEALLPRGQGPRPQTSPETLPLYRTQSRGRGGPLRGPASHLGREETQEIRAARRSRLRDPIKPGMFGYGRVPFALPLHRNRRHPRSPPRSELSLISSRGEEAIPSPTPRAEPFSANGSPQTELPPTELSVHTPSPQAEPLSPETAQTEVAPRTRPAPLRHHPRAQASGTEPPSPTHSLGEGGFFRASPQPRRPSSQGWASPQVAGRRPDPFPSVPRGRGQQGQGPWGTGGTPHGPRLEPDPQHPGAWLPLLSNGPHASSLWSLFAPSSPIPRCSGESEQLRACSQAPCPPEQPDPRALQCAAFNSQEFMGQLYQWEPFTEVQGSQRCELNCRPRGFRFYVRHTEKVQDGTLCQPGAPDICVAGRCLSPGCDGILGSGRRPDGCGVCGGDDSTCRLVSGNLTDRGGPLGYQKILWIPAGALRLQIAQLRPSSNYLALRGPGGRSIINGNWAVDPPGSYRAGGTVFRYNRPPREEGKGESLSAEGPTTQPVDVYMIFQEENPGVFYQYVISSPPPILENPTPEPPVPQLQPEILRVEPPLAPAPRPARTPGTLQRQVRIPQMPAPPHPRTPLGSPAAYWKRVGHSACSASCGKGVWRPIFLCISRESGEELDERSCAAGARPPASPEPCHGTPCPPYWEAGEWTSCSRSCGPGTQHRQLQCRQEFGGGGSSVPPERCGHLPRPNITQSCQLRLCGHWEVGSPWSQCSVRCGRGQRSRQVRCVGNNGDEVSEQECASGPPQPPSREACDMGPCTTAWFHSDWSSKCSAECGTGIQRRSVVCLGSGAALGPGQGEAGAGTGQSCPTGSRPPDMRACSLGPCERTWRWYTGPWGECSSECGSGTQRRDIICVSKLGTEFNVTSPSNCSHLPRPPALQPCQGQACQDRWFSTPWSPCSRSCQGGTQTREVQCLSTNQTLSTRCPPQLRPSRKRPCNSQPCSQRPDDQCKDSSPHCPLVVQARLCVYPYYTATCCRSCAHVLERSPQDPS"}}, "data": [{"variants_of": "B1", "settings": "with vti1b_human VTI1B", "values": [{"variant": "E108K", "effect of a mutation on the interaction": "with no effect"}]}, {"variants_of": "B2", "settings": "with creb5_human CREB5, Q02930", "values": [{"variant": "S8G", "effect of a mutation on the interaction": "with no effect"}, {"variant": "R27C", "effect of a mutation on the interaction": "with no effect"}]}, {"variants_of": "B3", "settings": "with ptk6_human PTK6, Q13882", "values": [{"variant": "E423G", "effect of a mutation on the interaction": "with no effect"}]}, {"variants_of": "B3", "settings": "with exos5_human EXOSC5, Q9NQT4", "values": [{"variant": "E423G", "effect of a mutation on the interaction": "with no effect"}]}, {"variants_of": "B4", "settings": "with atl4_human ADAMTSL4, Q6UY14", "values": [{"variant": "L199S", "effect of a mutation on the interaction": "with no effect"}]}]}
